We go through seven compounds from paper PMC11975949 (Frontiers in Pharmacology, 2025).

For assay [1], the system named is INS-1 832/3 cells. The following applies: ref Manchanda et al. (2023); cited from earlier work.
Assay [2] concerns INS-1 832/3 cells. The following applies: ref Manchanda et al. (2023); cited from earlier work. The source holds these as a separate data set.
Assay [3] concerns GLP-1R. The settings on record: various cell types; ref Jorgensen et al., 2005; Manchanda et al., 2023; cited from earlier work. The text has this: For many GPCRs, homologous desensitization first requires the phosphorylation of the active state of the receptor by the G protein-coupled receptor kinase (GRK) family of kinases. This is then followed by the binding of arrestin, which sterically hinders coupling to G proteins, effectively desensitizing the receptor ([Krasel et al., 2005]). Arrestin can also act as a scaffolding protein, linking the receptor to the cellular endocytic machinery and facilitating internalization ([Ferguson, 2001]). It is now appreciated that arrestin can also act as a signaling molecule in its own right, linking ...

Assay [4] relates to subjects with T2DM. Further details: method as in Nauck et al., 1993; Gasbjerg et al., 2020. The settings on record: pharmacological doses, ref Nauck et al., 1993, Gasbjerg et al., 2020; cited from earlier work.
The test system of assay [5] is GIPR. The settings on record: initially considered an antagonist; ref Al-Sabah et al., 2014a; Sparre-Ulrich et al., 2016; cited from earlier work. From the text: (§1) [Graaf et al., 2016]). Both receptors are expressed in pancreatic β-cells and other cell types, resulting in numerous pleiotropic effects of their peptide agonists. […] [Liu et al., 2022]; [Drucker and Holst, 2023]). Studies show ...

The test system of assay [6] is animal models of diabetes and obesity. The following applies: ref McClean et al., 2007, Gault et al.; cited from earlier work.
Source text: as §1

For assay [7] the following is noted: subjects with obesity, phase 2 study, ref Véniant et al., 2024, Amgen; cited from earlier work.
Source text: as §1

Assay [8] concerns the target NLuc-labeled chimeric receptor GLP-1/GIPR (GLP-1R with the C-terminal tail of GIPR) (human). Briefly: FRET or BRET; BRET in HEK-293 cells co-transfected 1:1 with NLuc-labeled receptor and NES-Venus-mini-G protein; cells in HBSS, agonist (GLP-1 or GIP) for 15 min, coelenterazine h 1 μM; BRET ratio as fold-change from non-stimulated, dose-response of the agonist.
For assay [9], the target named is NLuc-labeled chimeric receptor GIP/GLP-1R (GIPR with the C-terminal tail of GLP-1R) (human). The assay is described as above.
For assay [10], the target named is NLuc-labeled human GIPR (human) (UniProt P48546). The assay is described as above.
Assay [11] concerns the target NLuc-labeled human GLP-1R (human) (UniProt P43220). The description is as above.
Assay [12] addresses SYFP2-labeled chimeric receptor GLP-1/GIPR (GLP-1R with the C-terminal tail of GIPR) (human). Briefly: FRET or BRET; BRET in HEK-293 cells co-transfected 1:2 with SYFP2-labeled receptor and Arr3-NLuc; cells in HBSS, agonist (GLP-1 or GIP) for 15 min, coelenterazine h 1 μM; BRET ratio as fold-change from non-stimulated, dose-response of the agonist. Background: BRET reads energy transfer from a luciferase to a nearby fluorophore.

For assay [13], the target named is RLuc8-labeled chimeric receptor GLP-1/GIPR (GLP-1R with the C-terminal tail of GIPR) (human). Nature of the assay: FRET or BRET; BRET in HEK-293 cells co-transfected 1:2 with RLuc8-labeled receptor and Arr3-SYFP2; cells in HBSS, agonist (GLP-1 or GIP) for 15 min, coelenterazine h 1 μM; BRET ratio as fold-change from non-stimulated, dose-response of the agonist.

Sequence of NLuc-labeled human GLP-1R (human) (P43220 24-463): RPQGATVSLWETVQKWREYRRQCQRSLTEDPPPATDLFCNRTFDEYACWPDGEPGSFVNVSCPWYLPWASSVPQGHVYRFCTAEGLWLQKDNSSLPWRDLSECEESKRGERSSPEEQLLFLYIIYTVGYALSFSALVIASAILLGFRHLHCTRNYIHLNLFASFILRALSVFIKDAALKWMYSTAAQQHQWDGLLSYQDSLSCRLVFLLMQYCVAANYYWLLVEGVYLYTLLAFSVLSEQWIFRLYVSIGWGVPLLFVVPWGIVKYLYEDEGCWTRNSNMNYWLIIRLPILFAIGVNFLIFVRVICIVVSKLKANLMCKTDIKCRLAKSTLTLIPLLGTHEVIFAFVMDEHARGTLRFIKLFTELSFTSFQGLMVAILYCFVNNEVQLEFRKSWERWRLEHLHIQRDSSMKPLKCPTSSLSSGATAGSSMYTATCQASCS
Sequence of NLuc-labeled human GIPR (human) (P48546 22-466): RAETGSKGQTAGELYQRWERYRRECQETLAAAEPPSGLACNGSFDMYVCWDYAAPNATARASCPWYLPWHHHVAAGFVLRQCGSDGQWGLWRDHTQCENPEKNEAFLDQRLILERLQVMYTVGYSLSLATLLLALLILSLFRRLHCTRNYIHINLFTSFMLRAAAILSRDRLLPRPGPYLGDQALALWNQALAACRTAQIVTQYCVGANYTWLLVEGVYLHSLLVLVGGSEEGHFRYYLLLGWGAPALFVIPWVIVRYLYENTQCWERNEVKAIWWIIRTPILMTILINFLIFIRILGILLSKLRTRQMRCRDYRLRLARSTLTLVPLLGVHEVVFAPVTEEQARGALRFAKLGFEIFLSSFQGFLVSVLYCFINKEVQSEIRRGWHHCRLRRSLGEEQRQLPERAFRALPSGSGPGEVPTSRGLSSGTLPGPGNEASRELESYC

With `CC[C@H](C)[C@H](NC(=O)[C@H](Cc1ccccc1)NC(=O)[C@H](CCC(=O)O)NC(=O)[C@H](CCCCN)NC(=O)[C@H](C)NC(=O)[C@H](C)NC(=O)[C@H](CCC(N)=O)NC(=O)CNC(=O)[C@H](CCC(=O)O)NC(=O)[C@H](CC(C)C)NC(=O)[C@H](Cc1ccc(O)cc1)NC(=O)[C@H](CO)NC(=O)[C@H](CO)NC(=O)[C@@H](NC(=O)[C@H](CC(=O)O)NC(=O)[C@H](CO)NC(=O)[C@@H](NC(=O)[C@H](Cc1ccccc1)NC(=O)[C@@H](NC(=O)CNC(=O)[C@H](CCC(=O)O)NC(=O)[C@H](C)NC(=O)[C@@H](N)Cc1c[nH]cn1)[C@@H](C)O)[C@@H](C)O)C(C)C)C(=O)N[C@@H](C)C(=O)N[C@@H](Cc1c[nH]c2ccccc12)C(=O)N[C@@H](CC(C)C)C(=O)N[C@H](C(=O)N[C@@H](CCCCN)C(=O)NCC(=O)N[C@@H](CCCNC(=N)N)C(N)=O)C(C)C` [GLP-1, Glucagon-like peptide-1], in assay [1], the “GIP- vs GLP-1-stimulated insulin release” value is “no difference between GIP- and GLP-1-stimulated cAMP production or insulin release”. Moreover, in assay [2], the “GIP- vs GLP-1-stimulated cAMP production” value was “no difference between GIP- and GLP-1-stimulated cAMP production”. The “Arrestin recruitment to GLP-1R, in words” value in assay [3] is given as “results in the rapid recruitment of arrestin”. Also, in assay [4], the “Overcoming the impaired incretin effect in T2DM” value is listed as “can overcome this impairment in subjects with T2DM”.
For “(Pro3)GIP: an analog of GIP with a glutamic-acid-to-proline substitution at position 3 (YAPGTFISDYSIAMDKIHQQDFVNWLLAQKGKKNDWKHNITQ; Gastric inhibitory polypeptide; UniProt P09681 52-93, looked up, variant E3P)”, the “Agonism at GIP receptor” value in [5] is “low-potency agonist”. Moreover, the “Glucose homeostasis and weight gain” value in [6] is “improving glucose homeostasis and preventing weight gain”.
In the case of “Maridebart cafraglutide: fully human monoclonal anti-human GIPR antagonist antibody conjugated to two GLP-1R agonist peptides”, in [7], the Weight loss result was “robust weight loss”.
Regarding NES-Venus-mGαq, the pEC50 of the agonist GLP-1 for recruitment in assay [8] is 7.1 -log EC50/M; in [11] it was 7.3 -log EC50/M. Moreover, the pEC50 of the agonist GIP for recruitment is 9 -log EC50/M in [9] and 8.6 -log EC50/M in [10].
Turning to NES-Venus-mGαs, the pEC50 of the agonist GLP-1 for recruitment is 7.5 -log EC50/M in assay [8] and 7.6 -log EC50/M in assay [11]. Also, the pEC50 of the agonist GIP for recruitment in assay [9] and in assay [10] was 8.9 -log EC50/M throughout.
Turning to “NLuc-labeled arrestin3 (from UniProt P32121 1-409) (natural protein)”, in assay [12], the pEC50 of the agonist GLP-1 for recruitment was 7.3 -log EC50/M.
Turning to “SYFP2-labeled arrestin3 (from UniProt P32121 1-409) (natural protein)”, in assay [13], the pEC50 of the agonist GLP-1 for recruitment is 7.18 -log EC50/M.
